Source: article PMC10188570, “Pathway and mechanism of tubulin folding mediated by TRiC/CCT along its ATPase cycle revealed using cryo-EM” (Communications Biology, 2023)

Key:
Test in all cases: cross-linking; XL-MS, 2 mM BS3 on ice 2 h, purified TRiC with associated tubulin after 1 mM ATP, 5 mM MgCl2, 5 mM Al(NO3)3, 30 mM NaF (ATP-AlFx) 1 h 37 °C
Settings in all cases: both partners purified
CCT7 = target: T1, CCT7 (human, UniProt Q99832 1-543)
T1 construct: CCT7 subunit of human TRiC/CCT, endogenous; stood in the assays as a subunit of the whole TRiC complex; also called TRiC subunit CCT7; source: endogenous, HEK293F cells, purified as a subunit of TRiC
T1 sequence (looked up): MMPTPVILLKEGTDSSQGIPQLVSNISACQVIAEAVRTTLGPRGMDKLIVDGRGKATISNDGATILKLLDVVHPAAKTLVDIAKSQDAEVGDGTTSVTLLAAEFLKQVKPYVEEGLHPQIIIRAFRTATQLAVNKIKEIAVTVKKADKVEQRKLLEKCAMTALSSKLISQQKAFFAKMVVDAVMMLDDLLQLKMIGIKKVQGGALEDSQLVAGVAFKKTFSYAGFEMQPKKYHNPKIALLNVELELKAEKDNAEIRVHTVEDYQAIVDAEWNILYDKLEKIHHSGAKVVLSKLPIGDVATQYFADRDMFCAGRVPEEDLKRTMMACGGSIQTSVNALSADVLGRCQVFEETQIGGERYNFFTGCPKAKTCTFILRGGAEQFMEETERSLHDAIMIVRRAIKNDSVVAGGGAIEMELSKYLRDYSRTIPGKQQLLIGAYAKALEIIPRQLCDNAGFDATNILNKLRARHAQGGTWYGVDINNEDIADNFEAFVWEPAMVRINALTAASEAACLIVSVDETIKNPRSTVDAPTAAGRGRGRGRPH

CCT3 = target: T2, CCT3 (human, UniProt P49368 1-545)
T2 construct: CCT3 subunit of human TRiC/CCT, endogenous; stood in the assays as a subunit of the whole TRiC complex; also called TRiC subunit CCT3; source: endogenous, HEK293F cells, purified as a subunit of TRiC
T2 sequence (looked up): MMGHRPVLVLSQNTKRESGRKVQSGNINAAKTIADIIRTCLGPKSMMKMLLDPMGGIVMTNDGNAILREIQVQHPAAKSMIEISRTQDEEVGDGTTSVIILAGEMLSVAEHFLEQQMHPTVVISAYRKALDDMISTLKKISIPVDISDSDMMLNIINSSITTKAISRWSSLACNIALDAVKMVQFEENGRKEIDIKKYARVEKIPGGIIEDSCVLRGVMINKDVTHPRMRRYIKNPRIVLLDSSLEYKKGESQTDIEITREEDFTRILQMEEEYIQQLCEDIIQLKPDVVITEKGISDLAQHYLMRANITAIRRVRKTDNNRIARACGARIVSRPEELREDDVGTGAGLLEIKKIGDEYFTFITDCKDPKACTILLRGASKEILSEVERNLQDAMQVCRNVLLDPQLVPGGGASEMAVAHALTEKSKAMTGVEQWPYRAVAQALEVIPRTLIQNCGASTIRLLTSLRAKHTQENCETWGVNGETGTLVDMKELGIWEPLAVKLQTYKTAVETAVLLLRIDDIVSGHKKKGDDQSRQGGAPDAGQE

CCT8 = target: T3, CCT8 (human, UniProt P50990 1-548)
T3 construct: CCT8 subunit of human TRiC/CCT, endogenous; stood in the assays as a subunit of the whole TRiC complex; also called TRiC subunit CCT8; CCT8’ (copy in the trans ring); source: endogenous, HEK293F cells, purified as a subunit of TRiC
T3 sequence (looked up): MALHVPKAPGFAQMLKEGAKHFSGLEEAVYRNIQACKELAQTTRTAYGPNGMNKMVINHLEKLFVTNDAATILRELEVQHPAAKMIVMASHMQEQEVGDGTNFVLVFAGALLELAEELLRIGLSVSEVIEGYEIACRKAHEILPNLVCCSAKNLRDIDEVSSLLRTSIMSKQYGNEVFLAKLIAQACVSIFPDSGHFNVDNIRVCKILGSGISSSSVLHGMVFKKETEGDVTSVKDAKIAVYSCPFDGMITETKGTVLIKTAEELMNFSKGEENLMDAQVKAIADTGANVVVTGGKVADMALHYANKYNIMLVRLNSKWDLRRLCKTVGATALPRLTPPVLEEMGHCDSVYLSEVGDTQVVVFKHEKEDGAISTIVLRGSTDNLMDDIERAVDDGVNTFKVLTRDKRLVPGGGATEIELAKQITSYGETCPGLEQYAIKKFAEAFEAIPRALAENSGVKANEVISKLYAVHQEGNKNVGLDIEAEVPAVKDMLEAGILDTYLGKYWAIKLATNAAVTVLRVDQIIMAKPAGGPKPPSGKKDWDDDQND

CCT4 = target: T4, CCT4 (human, UniProt P50991 1-539)
T4 construct: CCT4 subunit of human TRiC/CCT, endogenous; stood in the assays as a subunit of the whole TRiC complex; also called TRiC subunit CCT4; source: endogenous, HEK293F cells, purified as a subunit of TRiC
T4 sequence (looked up): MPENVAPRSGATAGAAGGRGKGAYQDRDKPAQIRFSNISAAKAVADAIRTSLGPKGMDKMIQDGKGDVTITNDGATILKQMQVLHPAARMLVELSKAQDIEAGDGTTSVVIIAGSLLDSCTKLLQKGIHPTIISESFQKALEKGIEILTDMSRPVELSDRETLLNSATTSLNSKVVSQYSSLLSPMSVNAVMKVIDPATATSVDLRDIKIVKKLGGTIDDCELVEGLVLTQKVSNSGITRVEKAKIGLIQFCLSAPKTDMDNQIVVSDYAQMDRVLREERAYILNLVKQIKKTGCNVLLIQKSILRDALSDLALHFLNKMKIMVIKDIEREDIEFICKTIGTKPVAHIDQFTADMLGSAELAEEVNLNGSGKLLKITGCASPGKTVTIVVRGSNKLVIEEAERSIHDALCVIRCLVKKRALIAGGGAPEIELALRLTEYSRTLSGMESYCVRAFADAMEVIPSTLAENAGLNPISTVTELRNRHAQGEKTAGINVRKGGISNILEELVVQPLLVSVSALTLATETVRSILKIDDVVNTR

CCT5 = target: T5, CCT5 (human, UniProt P48643 1-541)
T5 construct: CCT5 subunit of human TRiC/CCT, endogenous; stood in the assays as a subunit of the whole TRiC complex; also called TRiC subunit CCT5; source: endogenous, HEK293F cells, purified as a subunit of TRiC

Measured: binding result

T5 sequence (P48643 whole entry): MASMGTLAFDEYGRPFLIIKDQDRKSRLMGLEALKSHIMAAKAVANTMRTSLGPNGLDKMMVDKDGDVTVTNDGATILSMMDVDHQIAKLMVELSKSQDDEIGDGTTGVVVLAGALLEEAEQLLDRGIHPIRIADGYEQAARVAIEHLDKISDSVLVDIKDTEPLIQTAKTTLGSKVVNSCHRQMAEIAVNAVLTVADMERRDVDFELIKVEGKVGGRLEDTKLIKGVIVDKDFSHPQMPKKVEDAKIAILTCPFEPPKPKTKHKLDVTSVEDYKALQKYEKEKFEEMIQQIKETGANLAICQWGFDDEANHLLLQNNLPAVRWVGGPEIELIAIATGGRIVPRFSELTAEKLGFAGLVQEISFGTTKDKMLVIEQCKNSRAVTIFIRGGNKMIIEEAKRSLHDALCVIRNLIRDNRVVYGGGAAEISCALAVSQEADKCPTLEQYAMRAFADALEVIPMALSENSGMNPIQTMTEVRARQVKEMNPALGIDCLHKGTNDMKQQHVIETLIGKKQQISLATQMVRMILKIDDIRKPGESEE

B1: β-tubulin (TUBB5) (natural protein, human (endogenous in HEK293F), UniProt P07437 1-444, looked up)
chain: MREIVHIQAGQCGNQIGAKFWEVISDEHGIDPTGTYHGDSDLQLDRISVYYNEATGGKYVPRAILVDLEPGTMDSVRSGPFGQIFRPDNFVFGQSGAGNNWAKGHYTEGAELVDSVLDVVRKEAESCDCLQGFQLTHSLGGGTGSGMGTLLISKIREEYPDRIMNTFSVVPSPKVSDTVVEPYNATLSVHQLVENTDETYCIDNEALYDICFRTLKLTTPTYGDLNHLVSATMSGVTTCLRFPGQLNADLRKLAVNMVPFPRLHFFMPGFAPLTSRGSQQYRALTVPELTQQVFDAKNMMAACDPRHGRYLTVAAVFRGRMSMKEVDEQMLNVQNKNSSYFVEWIPNNVKTAVCDIPPRGLKMAVTFIGNSTAIQELFKRISEQFTAMFRRKAFLHWYTGEGMDEMEFTEAESNMNDLVSEYQQYQDATAEEEEDFGEEAEEEA
notes: β-tubulin (TUBB5), human, endogenous; identified by MS and western blot; folding intermediate to near-natively folded, depending on the state of TRiC; also called substrate; source: endogenous, HEK293F cells, co-purified with TRiC
binds: CCT7 | CCT3 | CCT8 | CCT4 | CCT5
